Results on 1 molecule are retold here after patent CN107286237A.

What all share (experiment): SPR, BiaCore X-100, TRN1007 captured by goat anti-human IgG on CM5 chip, E2-core as analyte
In general terms: Surface plasmon resonance follows binding to a sensor surface in real time, without labels.

In experiment [1] the target is HCV包膜糖蛋白 HCV-E2-core 基因型7a (Hepatitis C virus genotype 7a).
The target in experiment [2] is HCV包膜糖蛋白 HCV-E2-core 基因型4a (Hepatitis C virus genotype 4a).
In experiment [3] the target is HCV包膜糖蛋白 HCV-E2-core 基因型6a (Hepatitis C virus genotype 6a).
Experiment [4] deals with HCV包膜糖蛋白 HCV-E2-core 基因型2a (Hepatitis C virus genotype 2a).

B1: 全人源抗HCV单克隆中和抗体TRN1007 (antibody, V domains shown)
VH: EVQLVQSGAEVKKPGSSVKVSCKASGGSFRSYGFSWVRQAPGQGLEWMGRIIPAANFADYAPKFQDRVTISADKSTSTAYMELKSLRSDDTAVYYCARDQDLSGELTALYYYHGLDVWGQGTTVTVSS
VL: EIVLTQSPGTLSLSPGQRVTLSCRASQSVSNNYIAWYQQKPGQAPRLLISGASSRATGIPDRFSGTGSGTDFTLAISRLEPEDFAVYYCQQYGDSFWTFGQGTKVEIK
As a reminder, the Kd is the equilibrium constant for the complex coming apart. For orientation: koff means the rate constant with which the complex falls apart. Low values mean slow dissociation, high ones fast dissociation. As usually defined, the kon is the rate constant with which the complex forms. As to B1, the equilibrium dissociation constant (Kd) in experiment [1] is 17.8 pM; in experiment [2], 1.59 pM; in experiment [3], 179 pM; in experiment [4] it was 1.07 pM. The koff in experiment [1] turned out to be 1.68e-06 s⁻¹; in experiment [2], 7.17e-08 s⁻¹; in experiment [3] it was 5.36e-07 s⁻¹; in experiment [4] it was 8.63e-08 s⁻¹. The kon was 94400 M⁻¹ s⁻¹ in experiment [1], 45100 M⁻¹ s⁻¹ in experiment [2], 2990 M⁻¹ s⁻¹ in experiment [3] and 80500 M⁻¹ s⁻¹ in experiment [4].
